In PMC11630628 (Molecular Plant, 2024):

Tests used:
[1] = system: MIK2-GFP (pMIK2::MIK2-GFP/mik2-1 plants); assay: MIK2-phosphorylation assay in detached leaves; format: cell-based, Arabidopsis thaliana; conditions: 5 μM peptide, 0, 1, 2, 4 h, pMIK2::MIK2-GFP/mik2-1 leaves; GFP IP, anti-pThr blot; vs mock
Description: Transgenic A. thaliana T3 homozygous plants expressing MIK2-GFP under the control of its native promoter were grown under long-day conditions (16 h light/8 h dark) for 4 weeks before sampling. […] Leaves were subjected to vacuum infiltration at room temperature for 30 min. Following treatment, the leaves were rapidly frozen in liquid nitrogen and ground into a fine powder. […] The samples were incubated for 30 min at 4°C with gentle agitation, followed by centrifugation at 14 000 rpm for 20 min at 4°C to remove debris. The supernatant was then incubated with anti-GFP agarose beads (Abcam, AE079) overnight at 4°C for immunoprecipitation (IP). […] The 30-μL eluted proteins were resolved on 7.5% SDS-PAGE gels and transferred onto polyvinylidene fluoride membranes. […] Abcam, AB6556), goat anti-rabbit immunoglobulin G (IgG) (H + L)-horseradish peroxidase (HRP) antibody (1:4000; Abcam, AB6721) and its phosphorylation status using anti-pThr antibodies (1:750, Cell Signaling, 9386), goat anti-mouse IgG (H + L)-HRP antibodies (1:2000; Abcam, AB6789), respectively.

[2] = system: Arabidopsis WT intact rosette leaves; assay: Exogenous peptide application on intact rosette leaves; format: in vivo, Arabidopsis thaliana; conditions: SCOOP10 1 μM sprayed, vs mock
Description: A. thaliana ecotype Columbia-0 and mutants used in this study include mik2-1 (SALK_06269), mik2-2 (CS419958), proscoop10-1 (SALK_080439), and proscoop10-2 (SALK_027949), which were obtained from ABRC. The proscoop12 CRISPR-Cas9-generated mutants were kindly provided by Dr. Elia Stahi at the University of Lausanne, Switzerland ([Stahl et al., 2022]). Imbibed seeds were incubated at 4°C in a refrigerator for 2 days before sowing on the soil mix (3 parts commercial soil: 1 parts vermiculite) and grown under the long-day condition (16 h light/8 h dark) in a growth chamber with 150 μmol m^−2 s^−1 light intensity. For the senescence phenotyping of detached leaves, the fifth and sixth rosette leaves of 25-day-old plants were removed and placed in Petri dishes with the adaxial side facing up. The Petri dishes were sealed with parafilm to prevent water loss, and the leaves were incubated with deionized water. The application of exogenous peptides followed the previously established method ([Zhang et al., 2022a], [2022b]). For dark-induced leaf senescence assays, detached rosette leaves were incubated in deionized water placed in the dark condition for 6 days. At least three biological replicates were included for each assay. For senescence phenotype analysis under normal growth conditions, homozygous plants were grown alongside Col-0. All data including plant phenotypes and gene expression presented in this study were analyzed with GraphPad Prism 9, and at least three biological replicates were included in each experiment. Chl content, photochemical efficiency of PSII (Fv/Fm ratio), and ion leakage were determined as previously described ([Zhang et al., 2020], [2022b]; [Guo et al., 2022]).
Figure S4. […]
after 1 to 10 days of treatments. Three independent experiments were performed with 8 leaves measured for each […]
determined by one-way ANOVA (α = 0.05) followed by Bonferroni post-hoc test for multiple comparisons (*P ≤ 0.05, ***P […]
indicate statistically significant differences compared to WT, as determined by one-way ANOVA analysis (α = 0.05) […]

[3] = system: Arabidopsis root elongation; conditions: ref Hou et al., 2021b, Rhodes et al.; cited from earlier work
Excerpt: (§1) Senescence, a crucial biological event in plant development, involves the coordinated breakdown of cellular components to recycle nutrients, aiding adaptation to changing environments. It optimizes nutrient storage and reuse, particularly in leaves, the primary photosynthetic organs. Initiation of leaf senescence prompts various physiological changes, including chlorophyll (Chl) reduction and macromolecule degradation, enabling nutrient recycling that supports the growth of seeds and fruits ([Yang et al., 2014]; [Kim et al., 2018]; [Woo et al., 2019]; [Guo et al., 2021]). Efficient senescence ...

[4] = system: MIK2-dependent plant immune response; conditions: ref Hou et al., 2021b, Rhodes et al.; cited from earlier work
Excerpt: as §1, with “... || MIK2 was also linked to cell wall integrity ([Van der Does et al., 2017]; [Coleman et al., 2020]) and disease resistance ([Van der Does et al., 2017]). MIK2 was reported to function in elicitor perception in response to infection by Fusarium spp. fungi ([Van der Does et al., 2017]; [Coleman et al., 2020]). […] Loss-of-function in p ...” for “...”

B1: SERINE-RICH ENDOGENOUS PEPTIDE 10 (peptide)
peptide: ALPYHHELFLGRKRMNYYKPNSAIGTPSSTSDHAPGSNGRKLMSIYRPNGDIFTGPSGSGHGGGRTPAP
notes: processed from PROSCOOP10; synthesized by GenScript
MIK2 kinase phosphorylation [1]: MIK2 phosphorylation decreased drastically over time compared to the mock controls
Chl content, intact rosette leaves ([2]; 1 to 10 days, WT, sixth rosette leaves): reduced Chl content
leaf senescence, intact rosette leaves ([2]; 10 days, 4-week-old WT, three experiments, 8 leaves each): significantly accelerated leaf senescence
Fv/Fm ratio, intact rosette leaves ([2]; WT): reduced Chl content and Fv/Fm ratio
root elongation (published) [3]: inhibiting root elongation
immune response (published) [4]: inducing plant immune responses
